Reference: patent US12083109B2, “Neurokinin antagonists and uses thereof” (California Institute of Technology, priority 2017, dated 2024)
Entries after “also recorded” stand apart in the source; their conditions may differ.

B1: shRNA-2: small hairpin RNA for mouse Tac2 gene (SEQ ID NO: 11, 12), expressed from AAV5-H1-shRNA-CMV-zsGreen (nucleic acid)
chain 1: CCGCCTCAACCCCATAGCAATTAGCTTCCTGTCACTAATTGCTATGGGGTTGAGGCTTTTTT
chain 2: AAAAAAGCCTCAACCCCATAGCAATTAGTGACAGGAAGCTAATTGCTATGGGGTTGAGGCGG
B2: shRNA-1: small hairpin RNA for mouse Tac2 gene (SEQ ID NO: 9, 10), expressed from AAV5-H1-shRNA-CMV-zsGreen (nucleic acid)
chain 1: CCGACGTGGTTGAAGAGAACACCGCTTCCTGTCACGGTGTTCTCTTCAACCACGTCTTTTTT
chain 2: AAAAAAGACGTGGTTGAAGAGAACACCGTGACAGGAAGCGGTGTTCTCTTCAACCACGTCGG

Test system: Tac2 mRNA
Experiment: Tac2 mRNA knockdown by FISH and qRT-PCR in brain of shRNA mice
Format: in vivo, mouse
Details: for knockdown of Tac2 mRNA (efficacy of shRNA): FISH and qRT-PCR; for Tac2 mRNA in CeA / Tac2 mRNA in DMH / Tac2 mRNA in dBNSTa: FISH fluorescence / qRT-PCR vs luciferase shRNA control
Protocol: Fluorescent in situ hybridization (FISH) was carried out according to the protocol described in (Thompson et al., 2008; incorporated by reference in its entirety) with modifications. Briefly, mice were transcardially perfused with 1×PBS followed by 4% paraformaldehyde/PBS (PFA) in 1×PBS. Brains were fixed in 4% PFA for 3-4 hours at 4° C., and cryoprotected overnight in 15% sucrose at 4° C. Brains were embedded in OCT Compound (Fisher Scientific) and cryosectioned at 30 μm thickness and mounted on Superfrost Plus slides (Fisher Scientific). Sections were fixed in 4% PFA for 30 minutes, acetylated with 0.25% acetic anhydride in 0.1 M triethanolamine for 10 minutes, dehydrated with increasing concentrations of EtOH (50, 70, 95 and 100%), gently treated with proteinase K ([…] in 0.01M Tris-HCl pH 7.4 and 0.001M EDTA) for 10 minutes, and fixed in 4% PFA for 20 minutes. All procedures were performed at room temperature (RT). The hybridization buffer contained 50% deionized formamide, 3× standard saline citrate (SSC), 0.12 M PB (pH 7.4), 10% dextran sulfate, 0.12 mg/ml yeast tRNA, 0.1 mg/mL calf thymus DNA, and 1× Dehardt solution. The sections were prehybridized at 63° C. in hybridization buffer for 30 minutes and then hybridized with the digoxigenin-labeled Tac2 RNA probe (300 ng/ml) in hybridization buffer at 63° C. for 16 hours. After hybridization, the sections were washed with 5×SSC for 10 minutes, 4×SSC/50% formamide for 20 minutes, 2×SSC/50% formamide for 30 minutes, and 0.1×SSC for 20 minutes twice each at 61° C. The sections were blocked with 4% sheep serum in TNT buffer (Tris-HCl pH7.5, 0.15 M NaCl and 0.00075% Tween 20) for 30 minutes and TNB Blocking buffer (TSA blocking reagent, PerkinElmer, Waltham, MA) for 30 minutes at RT. The sections were incubated overnight at RT with anti-digoxigenin-POD antibody (1:600, Roche Diagnostics) in TNB buffer. The sections were washed with TNT buffer and tyramide-biotin signal amplification was performed using the TSA Plus Biotin Kit (PerkinElmer). Signals were visualized after 1 hour incubation with Alexa Fluor 594 Streptavidin (Jackson ImmunoResearch) or Alexa Fluor 488 Streptavidin (Invitrogen) at RT. Sections were counterstained with DAPI ([…] in PBS), washed with 1×PBS, and coverslipped using Fluoro-Gel with Tris Buffer (Electron Microscopy Sciences). Tissue images of entire coronal brain sections were taken using an Olympus VS120-S6-W slide-scanner and cells positive for the probe were counted. Cell Counting
Following confocal or slide-scanner imaging, quantification of labeled cells was performed using ImageJ and Metamorph. Cells were counted by an observer blind to experimental conditions. Brain images were converted to greyscale (16-bit) in ImageJ and adjusted using automatic thresholding and watershed separation. Cells were either counted automatically using ImageJ's particle analysis algorithm (random sections were counted manually to cross-check that automated scoring was consistent with manual human scoring); otherwise, cells were counted manually using MetaMorph. Cells that were not entirely contained within a given region of interest (ROI) were excluded from analyses. Relative fluorescent intensities were measured automatically using MetaMorph for a given ROI. Raw cell counts within an ROI were divided by the size of the ROI (mm^2) to produce the number of positively labeled cells/mm^2.
Group housed or isolated (30 minutes, 24 hours, 2 weeks) mice were decapitated and brains were quickly removed and placed in RNA Later (Qiagen) at 4° C. Tissue from dBNSTa, DMH, CeA, ACC, and dHPC was microdissected and placed in RNA Later. Tissue was then homogenized and RNA purified using an RNAeasy Plus Mini Kit (Qiagen). 150ng of total RNA/region/condition was then incubated with 3 μl of Turbo DNase, 1 μl of Murine RNase Inhibitor in 1× Turbo DNase buffer for 15 minutes at 37° C. to remove any contaminating genomic DNA. […]

Molecule | knockdown of Tac2 mRNA (efficacy of shRNA) | Tac2 mRNA in CeA | Tac2 mRNA in DMH | Tac2 mRNA in dBNSTa
B1 | proved effective; also recorded: strongest reductions; also recorded: stronger knockdown | appeared reduced | reduced | reduced
B2 | proved effective | appeared reduced | reduced | reduced
